System: Nc1nc2c(ncn2[C@@H]2O[C@H](COP(=O)(O)OP(=O)(O)OP(=O)(O)O)[C@@H](O)[C@H]2O)c(=O)[nH]1
Assay: malachite green
Format: biochemical, Streptococcus thermophilus
Conditions: 20 mM Tris pH 8.0, 200 mM KCl, 5 mM MgCl2, 37 °C

StNFeoB (Streptococcus thermophilus LMG 18311; E66Q/E67Q)
Km: 187 ± 20 µM

From article doi:10.1101/2020.08.16.253419v1
